Data reported in publication PMC5770610, “Structure and function of urea amidolyase” (Bioscience Reports, 2018).

Assays:
KlAH = target: T1, KlAH (Kluyveromyces lactis, UniProt Q6CP22); assay: glutamate dehydrogenase-coupled NADH assay of ammonium; type: biochemical; details: AH activity; 6 mM MgCl2, 20 mM KCl, pH 8.0; substrate as potassium salt; read-out: Km^1
T1 construct: gene KLLA0_E08119g; isolated allophanate hydrolase (AH) part, N and C domains, N-terminal part of KlUA; recombinant; homodimer
Source text: glutamate dehydrogenase-coupled NADH assay of ammonium on KlAH

[1] = substrate: NC(=O)NC(=O)O; assay: as above; type: biochemical, Kluyveromyces lactis; details: AH activity, 6 mM MgCl2, 20 mM KCl, pH 8.0, substrate as potassium salt
Source text: (§1) glutamate dehydrogenase-coupled NADH assay of ammonium on KlUA

[2] = substrate: NC(N)=O; assay: as above; type: biochemical, Kluyveromyces lactis; details: overall UA activity, 5 mM ATP, 12.5 mM bicarbonate, 11 mM MgCl2, 20 mM KCl, pH 8.0
Source text: as §1

[3] = target: the molecule itself; assay: SEC; analytical gel filtration, Superose 6 HR column; 0.25 mg protein injected; 20 mM Tris/HCl pH 8.0, 200 mM NaCl; calibrated with standards of 29-669 kDa

Work on NC(=O)NC(=O)O [allophanate] yielded a Km (KlAH) of 432 ± 60 µM.

B1: Kluyveromyces lactis urea amidolyase, full length (enzyme, UniProt Q6CP22 1-1829, looked up)
chain: MESTLGWSVQDWLSFHSKSTPTKSLELLENLLKSQKPAPEDPAWISLIPVEDLHHQWNILQSKSNKEELPLYGVPIAVKDNIDYKGLPTTAACPSYLYQPTRDSYVVELLRDAGAVVIGKTNLDQFATGLVGTRSPYGKTPCVFNDKYVSGGSSAGSASVVGRGIVPLSLGTDTAGSGRVPAALNNLIGLKPTKGAFSCRGVVPACKSLDCVSVFALNLSDAEIAFKVMNKPDLLEDEYSREFPKNPISQYPKDLTIAIPKEVPWFGETENPKLYTKAVASLKNTGAKIVVVDFEPLLELARCLYEGAWVAERYCATRDFLATNPPESSLDETVVNIIKGAVKFDAADAFKFEYKRQGILQKVNLLLKDIDVLCVPTCPLNPKLEEVAQEPVLVNSRQGTWTNFVNLADLAALAVPSGFRSDGLPNGITLIGKKFSDYALLDLAKRFFSVAFPNNSRTYGKFVDRRITVEDELDGPSKDTLNGVKLAVVGAHLKGLPLHWQLQKCNATYLSSPKTSNNYKLYALPKVGPVLKPGLRRVNDGTGSQIQLEVYSVPYDRFGDFIAMVPEPLGIGSVELESGEWVKSFICEEFGYTQQGTVDITKFGGFKPYIEHIQVTEAQKKKPFETVLIANRGEIAVRIMKTLKRMGIKSVAVYSDPDKYSQHVTDADFSVALHGRTAAETYLDIDKIINAAKKTGAQAIIPGYGFLSENADFSDRCSQENIVFVGPSGDAIRKLGLKHSAREIAERAKVPLVPGSGLIKDAKEAKEVAKKLEYPVMVKSTAGGGGIGLQKVDSEDDIERVFETVQHQGKSYFGDAGVFMERFVNNARHVEIQMMGDGFGKAIAIGERDCSLQRRNQKVIEETPAPNLPEATRAKMRAASERLGSLLKYKCAGTVEFIYDEQRDEFYFLEVNARLQVEHPITEMVTGLDLVEWMLRIAANDSPDFDNTKIEVSGASIEARLYAENPVKDFRPSPGQLTSVSFPSWARVDTWVKKGTNVSAEYDPTLAKIIVHGKDRNDAIMKLNQALNETAVYGCITNIDYLRSIASSKMFKEAKVATKVLDSFDYKPCAFEVLAPGANTSVQDYPGRTGYWRIGVPPSGPMDSYSFRLANRVVGNNSKSPALEITLNGPKLLFHTETVIAVSGGTVSCTLNDAQIAQNEPIEVKRGDILSVGKVTVGCRAYLSIRGGIDVPEYLGSRSTFAMGNMGGYNGRILKLGDVLFLNQPELSVSSLPAPDFEPQAAPKSLLPTLSTNKDWKIGVTCGPHGSIDLFKEEYIEQFFNDKWKVHYNSNRFGVRLIGPKPKWARSDGGEAGLHPSNAHDYVYSLGAINFTGDEPVIITCDGPSLGGFVCQAVVAEAELWKVGQLTPGDTIQFVPLSYGVARQLKESQDKSIDNFEEGSLLELSDDKILPKYENPILAVLPKKSDLSPKVTYRQAGDRYILVEYGELEFDLNICYRINRLIHQVERHQTVGIVEMSQGVRSVLIEFDGSKINQKALLKCLIAYESEIQFDKNWNVKSKIFKLPMAFEDSKTLDCVTRYRETIRSEAPWLPNNVDFIADVNDIDRNDVKNMLYSAKFMVLGLGDVFLGSPCAVPLDPRHRYLGTKYNPSRTYTARGVVGIGGMYMCIYNAEGSPGGYQLVGRTITAWDKLVIGDHPIDHPWLLTPFDQVEFYPVTEEELEVIIEDNDNGKFKIDVEESIFDHKEYLAWINENIDSIVAFQEAQGGEKADEFARLIQVANAELKKSGDDKPQDVEEYPDDAELLYSEYTGRFWKPVAAVGDHVEAGDGVIIIEAMKTEMVVGATKSGKVYKILHKNGDMVEAGDLVAVIV
notes: urea amidolyase (AH domain followed by UC domain: BC, CT, BCCP) of Kluyveromyces lactis, gene amplified from the K. lactis genome; monomer 202 kDa; also called KlUA; full-length KlUA; source: expression and purification followed protocols reported previously [14,17]; purified
In the case of B1, the Km [1] is reported as 360 ± 37 µM, the kcat [1] is reported as 34.2 ± 0.683 s⁻¹ and the kcat/Km [1] is reported as 94900 ± 11700 M⁻¹ s⁻¹. The Km [2] was 255 ± 18 µM, the kcat [2] was 13.9 ± 0.183 s⁻¹ and the kcat/Km [2] was 54600 ± 4600 M⁻¹ s⁻¹. For the same molecule, the “stoichiometry N” value [3] was 2.

B2: KlUAΔBCCP (Kluyveromyces lactis urea amidolyase residues 1-1741, BCCP domain removed) (domain or fragment, UniProt Q6CP22 1-1741, looked up)
chain: MESTLGWSVQDWLSFHSKSTPTKSLELLENLLKSQKPAPEDPAWISLIPVEDLHHQWNILQSKSNKEELPLYGVPIAVKDNIDYKGLPTTAACPSYLYQPTRDSYVVELLRDAGAVVIGKTNLDQFATGLVGTRSPYGKTPCVFNDKYVSGGSSAGSASVVGRGIVPLSLGTDTAGSGRVPAALNNLIGLKPTKGAFSCRGVVPACKSLDCVSVFALNLSDAEIAFKVMNKPDLLEDEYSREFPKNPISQYPKDLTIAIPKEVPWFGETENPKLYTKAVASLKNTGAKIVVVDFEPLLELARCLYEGAWVAERYCATRDFLATNPPESSLDETVVNIIKGAVKFDAADAFKFEYKRQGILQKVNLLLKDIDVLCVPTCPLNPKLEEVAQEPVLVNSRQGTWTNFVNLADLAALAVPSGFRSDGLPNGITLIGKKFSDYALLDLAKRFFSVAFPNNSRTYGKFVDRRITVEDELDGPSKDTLNGVKLAVVGAHLKGLPLHWQLQKCNATYLSSPKTSNNYKLYALPKVGPVLKPGLRRVNDGTGSQIQLEVYSVPYDRFGDFIAMVPEPLGIGSVELESGEWVKSFICEEFGYTQQGTVDITKFGGFKPYIEHIQVTEAQKKKPFETVLIANRGEIAVRIMKTLKRMGIKSVAVYSDPDKYSQHVTDADFSVALHGRTAAETYLDIDKIINAAKKTGAQAIIPGYGFLSENADFSDRCSQENIVFVGPSGDAIRKLGLKHSAREIAERAKVPLVPGSGLIKDAKEAKEVAKKLEYPVMVKSTAGGGGIGLQKVDSEDDIERVFETVQHQGKSYFGDAGVFMERFVNNARHVEIQMMGDGFGKAIAIGERDCSLQRRNQKVIEETPAPNLPEATRAKMRAASERLGSLLKYKCAGTVEFIYDEQRDEFYFLEVNARLQVEHPITEMVTGLDLVEWMLRIAANDSPDFDNTKIEVSGASIEARLYAENPVKDFRPSPGQLTSVSFPSWARVDTWVKKGTNVSAEYDPTLAKIIVHGKDRNDAIMKLNQALNETAVYGCITNIDYLRSIASSKMFKEAKVATKVLDSFDYKPCAFEVLAPGANTSVQDYPGRTGYWRIGVPPSGPMDSYSFRLANRVVGNNSKSPALEITLNGPKLLFHTETVIAVSGGTVSCTLNDAQIAQNEPIEVKRGDILSVGKVTVGCRAYLSIRGGIDVPEYLGSRSTFAMGNMGGYNGRILKLGDVLFLNQPELSVSSLPAPDFEPQAAPKSLLPTLSTNKDWKIGVTCGPHGSIDLFKEEYIEQFFNDKWKVHYNSNRFGVRLIGPKPKWARSDGGEAGLHPSNAHDYVYSLGAINFTGDEPVIITCDGPSLGGFVCQAVVAEAELWKVGQLTPGDTIQFVPLSYGVARQLKESQDKSIDNFEEGSLLELSDDKILPKYENPILAVLPKKSDLSPKVTYRQAGDRYILVEYGELEFDLNICYRINRLIHQVERHQTVGIVEMSQGVRSVLIEFDGSKINQKALLKCLIAYESEIQFDKNWNVKSKIFKLPMAFEDSKTLDCVTRYRETIRSEAPWLPNNVDFIADVNDIDRNDVKNMLYSAKFMVLGLGDVFLGSPCAVPLDPRHRYLGTKYNPSRTYTARGVVGIGGMYMCIYNAEGSPGGYQLVGRTITAWDKLVIGDHPIDHPWLLTPFDQVEFYPVTEEELEVIIEDNDNGKFKIDVEESIFDHKEYLAWINENIDSIVAFQEAQGGEKADEFARLIQVANAE
notes: urea amidolyase of Kluyveromyces lactis, residues 1-1741 (stop codon inserted after base pair 5223); lacks the C-terminal BCCP domain; monomer 190 kDa; also called KIUAΔBCCP; source: E. coli BL21 (DE3) Star, purified (Ni-NTA, anion exchange, size exclusion)
For B2, the “stoichiometry N” value [3] was 2.
